1 variant from IntAct's records for PubMed 29281743 can be followed below.

B1: Protein deacetylase HDAC6 (Homo sapiens), Q9UBN7 (parent)
chain: MTSTGQDSTTTRQRRSRQNPQSPPQDSSVTSKRNIKKGAVPRSIPNLAEVKKKGKMKKLGQAMEEDLIVGLQGMDLNLEAEALAGTGLVLDEQLNEFHCLWDDSFPEGPERLHAIKEQLIQEGLLDRCVSFQARFAEKEELMLVHSLEYIDLMETTQYMNEGELRVLADTYDSVYLHPNSYSCACLASGSVLRLVDAVLGAEIRNGMAIIRPPGHHAQHSLMDGYCMFNHVAVAARYAQQKHRIRRVLIVDWDVHHGQGTQFTFDQDPSVLYFSIHRYEQGRFWPHLKASNWSTTGFGQGQGYTINVPWNQVGMRDADYIAAFLHVLLPVALEFQPQLVLVAAGFDALQGDPKGEMAATPAGFAQLTHLLMGLAGGKLILSLEGGYNLRALAEGVSASLHTLLGDPCPMLESPGAPCRSAQASVSCALEALEPFWEVLVRSTETVERDNMEEDNVEESEEEGPWEPPVLPILTWPVLQSRTGLVYDQNMMNHCNLWDSHHPEVPQRILRIMCRLEELGLAGRCLTLTPRPATEAELLTCHSAEYVGHLRATEKMKTRELHRESSNFDSIYICPSTFACAQLATGAACRLVEAVLSGEVLNGAAVVRPPGHHAEQDAACGFCFFNSVAVAARHAQTISGHALRILIVDWDVHHGNGTQHMFEDDPSVLYVSLHRYDHGTFFPMGDEGASSQIGRAAGTGFTVNVAWNGPRMGDADYLAAWHRLVLPIAYEFNPELVLVSAGFDAARGDPLGGCQVSPEGYAHLTHLLMGLASGRIILILEGGYNLTSISESMAACTRSLLGDPPPLLTLPRPPLSGALASITETIQVHRRYWRSLRVMKVEDREGPSSSKLVTKKAPQPAKPRLAERMTTREKKVLEAGMGKVTSASFGEESTPGQTNSETAVVALTQDQPSEAATGGATLAQTISEAAIGGAMLGQTTSEEAVGGATPDQTTSEETVGGAILDQTTSEDAVGGATLGQTTSEEAVGGATLAQTTSEAAMEGATLDQTTSEEAPGGTELIQTPLASSTDHQTPPTSPVQGTTPQISPSTLIGSLRTLELGSESQGASESQAPGEENLLGEAAGGQDMADSMLMQGSRGLTDQAIFYAVTPLPWCPHLVAVCPIPAAGLDVTQPCGDCGTIQENWVCLSCYQVYCGRYINGHMLQHHGNSGHPLVLSYIDLSAWCYYCQAYVHHQALLDVKNIAHQNKFGEDMPHPH

In the assay the parent is B1. The settings on record: with myd88_human MYD88, Q99836.
myd88_human MYD88, Q99836, sequence (Q99836 whole entry): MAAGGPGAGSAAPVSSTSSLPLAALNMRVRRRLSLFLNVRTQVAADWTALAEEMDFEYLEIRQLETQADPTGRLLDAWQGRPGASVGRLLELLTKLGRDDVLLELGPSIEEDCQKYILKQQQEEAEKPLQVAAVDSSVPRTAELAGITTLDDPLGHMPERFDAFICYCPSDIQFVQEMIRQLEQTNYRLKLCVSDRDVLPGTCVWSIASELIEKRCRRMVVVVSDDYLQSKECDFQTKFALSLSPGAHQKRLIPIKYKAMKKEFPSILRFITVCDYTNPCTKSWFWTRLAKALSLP
In the case of H216A;H611A, the “effect of a mutation on the interaction” value was “with no effect”.
